{"source": "patent US20260078398A1", "about": "“PLANTS GENETICALLY ENGINEERED FOR INCREASED WATER USE EFFICIENCY AND CARBON INTAKE AND METHODS FOR MAKING AND USING THEM” (The Regents of the University of California, priority 2022, published 2026)", "molecules": {"B1": {"name": "His-BdMPK5 (D90N), chill1 variant isoform (protein)", "chain": "MRMEGGGAGPAAAAAAGGAHGLGEAQIKGTLTHGGRYVQYNVYGNLFEVSAKYVPPIRPVGRGACGIICAAINVQTREEVAIKKIGNAFNNQIDAKRTLREVKLLRHMNHENVISIKDIIRPPRRENFNDVYIVYELMDTDLHHLLRSNQPLTDDHCQYFLYQVLRGLKYVHSANVLHRDLRPSNLLLNAKCDLKIGDFGLARTTTETDFMMEYVVTRWYRAPELLLNCSEYTGAIDMWSVGCILGEIATREPLFPGKDYVHQLRLITELLGSPDDTSLGFLRSDNARRYVRSLPQYPKQQFRSRFPNMSSGAMDLLERMLVFDPNKRITVDEALCHPYLASLHEINDEPVCPAPFSFDFEQPSFTEEDIKELIWRESVKFNPEPIH"}, "B2": {"name": "His-BdMPK5 (WT), recombinant Brachypodium distachyon BdMPK5 (protein)", "chain": "MRMEGGGAGPAAAAAAGGAHGLGEAQIKGTLTHGGRYVQYNVYGNLFEVSAKYVPPIRPVGRGACGIICAAINVQTREEVAIKKIGNAFDNQIDAKRTLREVKLLRHMNHENVISIKDIIRPPRRENFNDVYIVYELMDTDLHHLLRSNQPLTDDHCQYFLYQVLRGLKYVHSANVLHRDLRPSNLLLNAKCDLKIGDFGLARTTTETDFMMEYVVTRWYRAPELLLNCSEYTGAIDMWSVGCILGEIATREPLFPGKDYVHQLRLITELLGSPDDTSLGFLRSDNARRYVRSLPQYPKQQFRSRFPNMSSGAMDLLERMLVFDPNKRITVDEALCHPYLASLHEINDEPVCPAPFSFDFEQPSFTEEDIKELIWRESVKFNPEPIH"}, "B3": {"name": "MPK12 (recombinant Arabidopsis MAP kinase MPK12) (protein)", "chain": "MSGESSSGSTEHCIKVVPTHGGRYVQYNVYGQLFEVSRKYVPPIRPIGRGACGIVCAAVNSVTGEKVAIKKIGNAFDNIIDAKRTLREIKLLRHMDHENVITIKDIVRPPQRDIFNDVYIVYELMDTDLQRILRSNQTLTSDQCRFLVYQLLRGLKYVHSANILHRDLRPSNVLLNSKNELKIGDFGLARTTSDTDFMTEYVVTRWYRAPELLLNCSEYTAAIDIWSVGCILGEIMTGQPLFPGKDYVHQLRLITELVGSPDNSSLGFLRSDNARRYVRQLPRYPKQQFAARFPKMPTTAIDLLERMLVFDPNRRISVDEALGHAYLSPHHDVAKEPVCSTPFSFDFEHPSCTEEHIKELIYKESVKFNPDH"}, "B4": {"name": "MPK12-K70R: kinase inactive MPK12 isoform (protein)", "chain": "MSGESSSGSTEHCIKVVPTHGGRYVQYNVYGQLFEVSRKYVPPIRPIGRGACGIVCAAVNSVTGEKVAIRKIGNAFDNIIDAKRTLREIKLLRHMDHENVITIKDIVRPPQRDIFNDVYIVYELMDTDLQRILRSNQTLTSDQCRFLVYQLLRGLKYVHSANILHRDLRPSNVLLNSKNELKIGDFGLARTTSDTDFMTEYVVTRWYRAPELLLNCSEYTAAIDIWSVGCILGEIMTGQPLFPGKDYVHQLRLITELVGSPDNSSLGFLRSDNARRYVRQLPRYPKQQFAARFPKMPTTAIDLLERMLVFDPNRRISVDEALGHAYLSPHHDVAKEPVCSTPFSFDFEHPSCTEEHIKELIYKESVKFNPDH"}}, "key": {"[1]": {"biological_target": "T1, His-HT1 (recombinant Arabidopsis HT1 protein kinase, wild type, with His tag)", "T1 chain": "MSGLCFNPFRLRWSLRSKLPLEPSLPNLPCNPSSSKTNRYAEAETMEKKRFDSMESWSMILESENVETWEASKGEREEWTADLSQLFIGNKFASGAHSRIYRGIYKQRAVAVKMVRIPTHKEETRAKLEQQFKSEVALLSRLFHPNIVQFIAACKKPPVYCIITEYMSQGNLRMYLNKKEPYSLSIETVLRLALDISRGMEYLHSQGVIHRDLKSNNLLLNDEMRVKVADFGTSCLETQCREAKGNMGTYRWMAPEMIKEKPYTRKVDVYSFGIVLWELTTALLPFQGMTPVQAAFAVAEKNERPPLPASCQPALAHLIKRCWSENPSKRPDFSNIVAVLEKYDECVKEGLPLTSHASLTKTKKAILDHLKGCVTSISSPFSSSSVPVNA"}, "[2]": {"tested_on": "MPK4/12, HT1 and CBC1 recombinant proteins", "assay": "in vitro phosphorylation assay: NaHCO3-dependent down-regulation of HT1-mediated CBC1 phosphorylation", "assay_type": "biochemical, Arabidopsis", "conditions": "isoform replaces wild type protein or is added; 20 mM NaHCO3 vs NaCl control, 30 min", "procedure": "We tested whether this HT1-mediated activation of CBC1 is inhibited by CO2/bicarbonate by adding NaHCO3 in in vitro phosphorylation reactions. […]\nFIG. 2. […] Histone was used as an artificial protein kinase substrate. • (B) MPK4, HT1 and CBC1 proteins were incubated with NaHCO3 at the indicated concentrations for 30 min, and in vitro phosphorylation assays were performed. • (C) CBC1 band intensities as shown in (B) were measured using IMAGEJ™, n=4 experiments, error bars show ±S.D. • (D) MPK4, HT1 and CBC1 proteins were incubated in reaction buffers adjusted at different pH (6.5 to 8.5) for 30 min, and in vitro phosphorylation assays were performed. • (E) CBC1 band intensities and the density-ratios of ‘+NaHCO3’ to ‘—NaHCO3’ (=+NaCl controls) for each pH condition\nFIG. 3. […] Ambient CO2 concentrations are indicated by the top bars. n=7 experiments, error bars show ±SEM. • (C) Recombinant HT1 (wild type, HT1-G89R or HT1-R173Q) and CBC1 proteins were incubated with MPK4 in the presence or absence of 20 mM NaHCO3 or 20 mM NaCl (−controls) for 30 min, and in vitro phosphorylation assays were performed. • (D) Recombinant MPK12, CBC1 and HT1 (WT or R102K) proteins were incubated with or without 20 mM NaHCO3 or 20 mM NaCl (−controls) for 30 min, and in vitro phosphorylation assays were performed. Histone was used as an artificial kinase substrate. • (E) HT1 (WT or A109V) proteins were used for in vitro phosphorylation assays. Proteins were incubated with or without 20 mM NaHCO3 or 20 mM NaCl (−controls) for 30 min. • (F) Stomatal conductances were analyzed using intact plants of Arabidopsis (Col-0 (WT), cbc1 cbc2, ht1-A109V and cbc1 cbc2 ht1-A109V). CO2 concentration changes were applied as indicated on top (p.p.m.). […]"}}, "data": [{"molecule": "B1", "values": [{"measurement": "CBC1 phosphorylation, in vitro phosphorylation assay with GST-CBC1, His-HT1 and His-BdMPK5 (D90N), with or without 20 mM NaHCO3 (n=2)", "setting": "[1]", "value": "The BdMPK5-D90N variant protein abrogated the high CO2/bicarbonate-mediated downregulation of CBC1 phosphorylation"}]}, {"molecule": "B2", "values": [{"measurement": "CBC1 protein kinase activity, in vitro phosphorylation assay with GST-CBC1, His-HT1 and His-BdMPK5, with or without 20 mM NaHCO3 (n=2)", "setting": "[1]", "value": "HT1 and CBC1 together with the BdMPK5 protein showed a high CO2/bicarbonate-induced down-regulation of the CBC1 protein kinase activity"}]}, {"molecule": "B3", "values": [{"measurement": "CBC1 and histone phosphorylation in vitro (HT1 + CBC1 + MPK12, 20 mM NaHCO3; FIG. 2A, n>6)", "setting": "[1]", "value": "when MPK4 or MPK12 were added to the reaction, we found that the addition of NaHCO3, but not NaCl, inhibited both CBC1 phosphorylation and histone phosphorylation in vitro"}, {"measurement": "HT1 kinase activity, in vitro phosphorylation assay with or without 20 mM NaHCO3 (FIG. 4B, n=3)", "setting": "[1]", "value": "HT1 kinase activity was inhibited in response to NaHCO3, only in the presence of MPK12"}]}, {"molecule": "B4", "values": [{"measurement": "NaHCO3-mediated down-regulation of CBC1 phosphorylation/activity with the protein isoform in the reaction", "setting": "[2]", "value": "retained the ability to mediate CO2/bicarbonate-induced CBC1 inhibition"}]}]}
